Ends that are not written are not given here.
Columns and labels:
syndecan-4 [1] = experiment: FGF2 stimulated syndecan-4 endocytosis, time-lapse confocal microscopy; assay type: cell-based, human; conditions: HT1080, 22° C., 0, 10 and 60 minutes
syndecan-4 [2] = target: T1, syndecan-4 (Homo sapiens, UniProt P31431); experiment: Syndecan-4 mediated internalization and nuclear targeting of FITC labeled basic peptides (immunofluorescent microscopy); assay type: cell-based; conditions: 10 μM FITC labeled peptide
T1 construct: comprising the full, human syndecan-4 cDNA driven by cytomegalovirus (CMV) promoter; expressed in transfected cells; host or cells: HT1080 fibrosarcoma, MCF7 adenocarcinoma
T1 sequence (P31431 19-198): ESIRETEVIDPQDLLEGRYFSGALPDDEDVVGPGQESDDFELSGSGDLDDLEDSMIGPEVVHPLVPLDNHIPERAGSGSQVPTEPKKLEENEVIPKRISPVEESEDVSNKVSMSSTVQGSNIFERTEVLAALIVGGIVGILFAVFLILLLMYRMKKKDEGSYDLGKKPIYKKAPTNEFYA
Excerpt: Green fluorescent protein (GFP, Clontech; Palo Alto, Calif., USA) labeled fusion proteins were used to follow the process of the endocytosis of syndecan-4 in vivo. GFP was inserted into the syndecan-4 extracellular region in the HuSynd4 pCMV construct, comprising the full, human syndecan-4 cDNA driven by cytomegalovirus (CMV) promoter by using techniques well-known by the person skilled in the art. To avoid possible artifacts, every experiment was repeated with all of the constructs; HuSynd4 pCMV and the GFP chimeras. To reveal the role and the importance of phosphorylation stage of Ser179, mutations were introduced into the cytoplasmic tail region of syndecan-4-GFP chimeras. […]
Syndecan-4 is able to carry the agents bound on the cell surface into the cell. […] The cells were permeabilized with 0.1% triton X-100 (Sigma, St. Louis, Mo., USA) in PBS, and syndecan-4 was visualized with anti-syndecan-4 ectodomain serum (Zymed, San Francisco, Calif., USA), monitored by immunofluorescent microscopy. […] The labeled molecules were detected in distinct compartments of cytoplasm, which indicate that the syndecan-4 was able to internalize and traffic the attached agents, like antibodies, and basic peptides along, holding the specifically bound agents intact throughout the whole process. […]

| nuclear accumulation of labeled oligopeptide, colocalized with syndecan-4 (syndecan-4 [2]) | Substance | syndecan-4 endocytosis (syndecan-4 [1]) | triggering of syndecan-4 endocytosis and penetration into the cell (syndecan-4 [2]; incubated for an hour) |
| --- | --- | --- | --- |
| – | FGF2: basic fibroblast growth factor, stimulator of syndecan-4 endocytosis | stimulated | – |
| accumulated in the nucleus | KRKRKR (also: FITC label) [6 amino acid basic oligopeptide, fluorescently (FITC) labeled] | – | able to trigger the endocytosis, and penetrate |

From US8647828B2, “Intracellular targeting of molecules via syndecan-4” (Szilak Laboratories Bioinformatics & Molecule-Design Ltd., priority 2007, dated 2014)
